According to patent US11732249 (WASHINGTON UNIVERSITY, dated 2023):

Biological target: T1, soluble bovine cation-independent mannose 6-phosphate receptor (CI-MPR), covalently conjugated to Cyanogen … (bovine, UniProt P08169 45-2313, limits assumed, covalently conjugated to Cyanogen bromide-activated-Sepharose 4B)
T1 construct: also called immobilized CI-MPR
Experiment: CI-MPR-affinity bead pull-down from lysates of GNPTAB-/- HeLa cells transfected with empty vector, WT α/β precursor or DS1 mutant; western blot (FIG. 2C)
Description: (FIG. 2C) Western blot of GNPTAB^{-/-} HeLa cells co-transfected with the expression plasmids for the indicated proteins along with empty vector, WT α/β precursor or the DS1 mutant cDNA. Cell lysates were incubated with CI-MPR-affinity beads and the binding of the various proteins was determined by probing the blot with the following antibodies: Renin—anti-HA; NPC2, GP, Lamp1 and Lamp2 with antibodies generated against the native protein.

T1 sequence (P08169 45-2313 limits assumed): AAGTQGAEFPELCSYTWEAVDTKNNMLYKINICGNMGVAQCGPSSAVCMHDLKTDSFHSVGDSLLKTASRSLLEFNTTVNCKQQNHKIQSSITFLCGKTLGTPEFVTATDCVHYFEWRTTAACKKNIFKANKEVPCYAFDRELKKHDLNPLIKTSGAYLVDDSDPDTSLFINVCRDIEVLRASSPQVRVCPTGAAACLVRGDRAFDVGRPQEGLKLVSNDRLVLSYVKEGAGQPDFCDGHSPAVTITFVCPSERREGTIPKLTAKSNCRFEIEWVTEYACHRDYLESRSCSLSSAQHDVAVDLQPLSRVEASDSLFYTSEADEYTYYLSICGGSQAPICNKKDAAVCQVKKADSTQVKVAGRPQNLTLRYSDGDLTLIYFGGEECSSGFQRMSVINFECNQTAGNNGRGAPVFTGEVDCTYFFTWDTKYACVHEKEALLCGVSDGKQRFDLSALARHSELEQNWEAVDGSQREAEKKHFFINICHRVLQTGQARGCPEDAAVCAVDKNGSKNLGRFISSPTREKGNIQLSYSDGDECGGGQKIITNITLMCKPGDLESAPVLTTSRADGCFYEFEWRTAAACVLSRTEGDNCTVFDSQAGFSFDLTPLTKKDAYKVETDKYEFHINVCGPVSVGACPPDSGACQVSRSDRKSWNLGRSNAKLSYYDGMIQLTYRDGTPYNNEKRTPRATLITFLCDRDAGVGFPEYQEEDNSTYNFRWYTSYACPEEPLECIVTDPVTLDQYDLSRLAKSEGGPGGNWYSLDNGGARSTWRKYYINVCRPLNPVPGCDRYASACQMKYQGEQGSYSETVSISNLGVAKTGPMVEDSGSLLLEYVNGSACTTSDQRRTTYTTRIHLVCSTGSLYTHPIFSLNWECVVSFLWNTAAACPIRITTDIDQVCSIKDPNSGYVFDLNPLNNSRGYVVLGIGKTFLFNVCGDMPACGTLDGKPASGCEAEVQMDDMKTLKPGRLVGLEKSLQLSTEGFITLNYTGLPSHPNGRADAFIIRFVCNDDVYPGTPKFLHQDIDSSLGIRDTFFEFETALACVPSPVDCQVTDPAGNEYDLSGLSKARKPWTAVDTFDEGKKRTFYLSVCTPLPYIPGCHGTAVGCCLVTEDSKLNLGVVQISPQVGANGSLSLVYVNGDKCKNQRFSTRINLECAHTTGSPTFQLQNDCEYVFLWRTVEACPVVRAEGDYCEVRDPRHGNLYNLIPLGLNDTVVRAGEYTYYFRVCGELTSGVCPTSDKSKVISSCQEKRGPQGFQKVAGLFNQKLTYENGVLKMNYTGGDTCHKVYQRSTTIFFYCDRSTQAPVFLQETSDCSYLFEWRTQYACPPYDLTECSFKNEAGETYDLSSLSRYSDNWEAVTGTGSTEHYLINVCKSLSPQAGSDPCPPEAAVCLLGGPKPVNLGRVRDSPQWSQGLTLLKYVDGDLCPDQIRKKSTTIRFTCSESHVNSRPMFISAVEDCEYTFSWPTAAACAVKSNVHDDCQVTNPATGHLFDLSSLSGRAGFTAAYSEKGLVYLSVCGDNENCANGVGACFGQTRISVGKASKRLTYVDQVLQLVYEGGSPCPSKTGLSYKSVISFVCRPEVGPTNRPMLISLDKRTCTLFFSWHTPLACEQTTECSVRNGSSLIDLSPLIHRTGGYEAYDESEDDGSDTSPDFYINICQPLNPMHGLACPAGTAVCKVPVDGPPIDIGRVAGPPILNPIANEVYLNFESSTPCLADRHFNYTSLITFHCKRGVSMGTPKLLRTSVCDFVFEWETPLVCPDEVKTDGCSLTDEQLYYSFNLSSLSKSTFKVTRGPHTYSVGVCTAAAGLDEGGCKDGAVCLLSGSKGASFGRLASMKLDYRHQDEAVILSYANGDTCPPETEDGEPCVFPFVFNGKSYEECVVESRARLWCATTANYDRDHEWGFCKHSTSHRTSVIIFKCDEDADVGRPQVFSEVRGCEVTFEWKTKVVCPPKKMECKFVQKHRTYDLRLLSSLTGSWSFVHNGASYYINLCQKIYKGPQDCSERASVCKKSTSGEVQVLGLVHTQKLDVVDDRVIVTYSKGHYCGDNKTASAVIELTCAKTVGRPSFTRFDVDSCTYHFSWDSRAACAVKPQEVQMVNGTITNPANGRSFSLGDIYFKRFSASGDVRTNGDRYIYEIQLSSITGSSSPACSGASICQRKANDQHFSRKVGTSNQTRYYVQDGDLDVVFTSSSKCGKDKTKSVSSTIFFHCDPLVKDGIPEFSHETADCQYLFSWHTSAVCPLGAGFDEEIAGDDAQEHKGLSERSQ

binding result: no binding
B1: Lamp1 (other, UniProt P11279 29-417, looked up)
chain: AMFMVKNGNGTACIMANFSAAFSVNYDTKSGPKNMTFDLPSDATVVLNRSSCGKENTSDPSLVIAFGRGHTLTLNFTRNATRYSVQLMSFVYNLSDTHLFPNASSKEIKTVESITDIRADIDKKYRCVSGTQVHMNNVTVTLHDATIQAYLSNSSFSRGETRCEQDRPSPTTAPPAPPSPSPSPVPKSPSVDKYNVSGTNGTCLLASMGLQLNLTYERKDNTTVTRLLNINPNKTSASGSCGAHLVTLELHSEGTTVLLFQFGMNASSSRFFLQGIQLNTILPDARDPAFKAANGSLRALQATVGNSYKCNAEEHVRVTKAFSVNIFKVWVQAFKVEGGQFGSVEECLLDENSMLIPIAVGGALAGLVLIVLIAYLVGRKRSHAGYQTI
